Paper PMC8675929 (PLoS Pathogens, 2021)

T1: 36mer repeat peptide (NANP)9 (Plasmodium falciparum repeat, synthetic …)
T1 construct: printed as (NANP)9, 36mer; nine NANP tetrapeptides of the central repeat region of Plasmodium falciparum circumsporozoite protein; source: created by Genscript, as previously described [21,40]
T1 chain: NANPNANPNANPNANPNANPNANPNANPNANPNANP

B1: L15 (antibody, V domains shown)
VH: EVQLVESGGVVVQPGGSLRLSCAASGFTFDDYTMHWVRQAPGKGLEWVSLISWDGGTTYYADSVKGRFTISRDNSKNSLYLRMNSLRTEDTALYYCAKGLVAQWLRGDYYYGLHVWGQGTTVTVSS
VL: QSALTQPASVSGSPGQSITISCTGTSSDVGAYNSVSWYQQHPGKAPKLMIYDVTNRPSGVSNRFSGSKSGNTASLTISGLQAEDEADYYCSSYTITNTLVFGGGTKLTVL
B2: L20 (antibody, V domains shown)
VH: EVQLVESGGGLVQPGRSLRLSCAASGFTFDDYAMHWVRQAPGKGLEWVSGINWNSGSIGYADSVKGRFTISRDNARNSLYLQMNGLRAEDTAFYYCAKDLRAYYYGSGSPWGFHHWGQGTLVTVSS
VL: QSALTQPPSASGSPGQSVTISCTGTSSDVGGYNYVSWYEQHPGKAPKLLIYEVSKRPSGVPDRFSGSKSGNTASLTVSGLQAEDEADYYCSSYAGSNNVVFGGGTKLTVL
B3: L4 (antibody, V domains shown)
VH: QLQLQESGPRLVKPSETLSLTCTVSGGSISRTSYYWDWIRQPPGKGLEWIGSIYYRGSTYHNPSLKSRVTISVDTSKNQFSLRLTSVTAADTAVYYCARPKNLGVVAATNWFDPWGQGTLVTVSS
VL: QSVLTQPPSVSGAPGQRVTISCTGSSSNIGATYDVHWYQQLPGTAPKLLIYDNNNRPSGVPDRFSGSKSGTSASLAITGLQADDEADYYCQSYDSSLSGVVFGGGTKLTVL
B4: L7 (antibody, V domains shown)
VH: QLQLQESGPGLVKPSETLSLTCTVSGGSISSSNYYWDWIRQPPGKGLEWIGSINYSGSTYYNPSLKSRVTISVDTSKIQFSLKMSSVTAADTAVYYCARRRVDFWSGYNWFDPWGQGTLVTVSS
VL: QPVLTQPPSASASMGASVTLTCTLSSGYSKYKVDWYQQRPGKGPRFVMRAGTGGIVGSKGDGIPDRFSVLGSGLNRYLTIKNIQEEDESDYHCGADHGSGSNFVYVFGTGTKVTIL
B5: 1710 (antibody, V domains shown)
VH: EVQLQESGGGLVKPGGSLRLSCAASGFTFSSYSMNWVRQAPGKGLEWVSSITSSSSYIYYADSVKGRFTISRDNAKNSLYLQMNSLRAEDTAVYYCARDPGIAAADNHWFDPWGQGTLVTVSS
VL: not shown

What follows are binders tested against T2, full-length recombinant PfCSP (FL-rCSP) (Plasmodium falciparum 3D7 (clone of …, UniProt Q7K740)) (assay: ELISA). Conditions: both partners purified.
T2 construct: also called PfCSP_3D7

Q: Does B1 bind?
A: binds

Q: Does B2 bind?
A: binds

Q: Does B3 bind?
A: binds

Q: Does B4 bind?
A: binds

What follows are binders tested against T3, recombinant C-CSP construct (PfCSP_3D7 amino acids 295–374) (Plasmodium falciparum 3D7, UniProt Q7K740) (assay: ELISA). Conditions: both partners purified.
T3 construct: also called C-terminal domain of PfCSP

Q: Does B1 bind?
A: binds

Q: Does B2 bind?
A: binds

Q: Does B3 bind?
A: binds

Q: Does B4 bind?
A: binds

Q: Does B5 bind?
A: binds

The binders below were run against T4, N-CSP (N-terminus of PfCSP) (Plasmodium falciparum 3D7, UniProt Q7K740) (assay: ELISA). Conditions: both partners purified.
T4 construct: source: created by Genscript, as previously described [21,40]

Q: Does B1 bind?
A: no binding (tested: 5.0 μg/mL)

Q: Does B2 bind?
A: no binding (tested: 5.0 μg/mL)

Q: Does B3 bind?
A: no binding (tested: 5.0 μg/mL)

Q: Does B4 bind?
A: no binding (tested: 5.0 μg/mL)

Q: Does B5 bind?
A: no binding (tested: 5.0 μg/mL)

What follows are binders tested against full-length PfCSP on transgenic P. berghei sporozoites (Pb-PfCSP-GFP/Luc-SPZ) (Plasmodium falciparum, 3D7 (transgene …, UniProt Q7K740)) (assay: flow cytometry on cells; 20 μg/mL mAb on midgut (MG) Pb-PfCSP-SPZ; goat anti-human IgG-Alexa Fluor 647). Conditions: one partner purified.

Q: Does B1 bind?
A: binds

Target: T1, 36mer repeat peptide (NANP)9
Assay: ELISA; antigen coated at 0.5 μg/mL in bicarbonate buffer overnight at 4°C; mAbs 5x10^-7–5.0 μg/mL, 2 hrs at 37°C; HRP-conjugated goat anti-human IgG; AUC of OD450
Conditions: both partners purified

Q: Does B1 bind?
A: no binding (tested: 5.0 μg/mL)

Q: Does B2 bind?
A: no binding (tested: 5.0 μg/mL)

Q: Does B3 bind?
A: no binding (tested: 5.0 μg/mL)

Q: Does B4 bind?
A: no binding (tested: 5.0 μg/mL)
